In US20190359666A1 (ACADEMIA SINICA, published 2019):

Assays:
[1] = target: T1, HGF (UniProt P14210 32-728); experiment: Biacore SPR, growth factor immobilised
T1 construct: also called hepatocyte growth factor
Protocol: (§1) Biacore binding was performed at David Myszka's laboratory at the University of Utah or at the Genomic Research Center at Academia Sinica. Surfaces of binding protein chimera were made via chemical immobilization on a CM4 chip using standard amine coupling chemistry. […] Excess surface carboxyl activated sites on all four flow cells was blocked using the doubly positively charged species ethylenediamine. Binding experiments (but not immobilizations) in HBS-P (10 mM HEPES pH 7.4, 150 mM NaCl, 0.05% P20), The HBS-P was supplemented with BSA at 0.2 mg/mL, or HBS-P was supplemented with 500 mM NaCl (650 mM NaCl, final concentration). Analytes were also reconstituted in the corresponding buffer. All experiments were performed at 25° C. 1/150 dilutions of phosphoric acid were used to regenerate IGFBP3-Fc surfaces and a sequence of 3 M MgCl₂ followed by 5 M GuCl was used to regenerate surfaces immobilized with growth factor. Dissociation constants reported below used immobilized binding protein unless noted. Differences between binding constants may be expected between growth factor immobilization and chimera immobilization.
(§2) We selected his3t33Fc and chimera A for further analysis and examined their growth factor binding by Biacore and ELISA competition assays.

[2] = target: T2, IGF-1 (UniProt P05019 49-118); experiment: biotinylated IGF-1 ELISA on Fc-captured chimera, 4 C PBS control (the reference); experiment 4-81
T2 construct: Biotinylated IGF-1 is written as the same molecule; also called biotinylated IGF-1; IGF-1-bio
Protocol: (§3) Plates were coated with goat anti-human Fc antibody, blocked and then incubated with chimera as in the Fc ELISA. Biotinylated IGF-1 (GroPep) or VEGF-Biotin (R&D Systems VEGF biotinylated with sulfo-NHS-LC-biotin as per instructions (Pierce) was added for 2 hours followed by streptavidin-HRP (Jackson Immunoresearch) for 30 minutes. Chromogenic development with tetramethyl benzidine was performed as described above.
(§4) To test the stability of the present chimeras, some purified chimeras (see, Table 4) were incubated with PBS or a conditioned medium from the MCF-7 cell line overnight at 37° C. and PBS overnight at 4° C. The IGF-1 binding and VEGF binding were measured using the biotinylated IGF-1 and VEGF.

[3] = target: T3, nrgbx (UniProt Q02297-6 2-246, limits assumed); experiment: Biacore SPR, chimera immobilised
T3 construct: also called neuregulin
T3 sequence (looked up): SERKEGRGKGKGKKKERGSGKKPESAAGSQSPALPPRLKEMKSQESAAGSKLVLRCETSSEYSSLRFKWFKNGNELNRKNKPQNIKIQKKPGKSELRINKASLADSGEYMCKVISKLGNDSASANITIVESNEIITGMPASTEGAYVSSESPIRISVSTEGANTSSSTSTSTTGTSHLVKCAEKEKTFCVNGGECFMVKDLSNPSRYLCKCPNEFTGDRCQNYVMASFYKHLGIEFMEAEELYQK
Protocol: as §1, §2

[4] = target: T4, VEGF-B (UniProt P49765-2 22-188); experiment: Biacore SPR, chimera immobilised
T4 sequence (looked up): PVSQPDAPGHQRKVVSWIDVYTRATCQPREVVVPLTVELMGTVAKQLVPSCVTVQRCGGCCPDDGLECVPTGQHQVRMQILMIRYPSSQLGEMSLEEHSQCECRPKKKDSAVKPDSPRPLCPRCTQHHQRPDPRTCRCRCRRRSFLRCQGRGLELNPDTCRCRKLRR
Protocol: as §1, §2

[5] = target: IGF-2 (UniProt P01344 25-91); experiment: Biacore SPR, chimera immobilised
Protocol: as §1, §2

[6] = target: mIGF-2 (UniProt P09535 25-91); experiment: Biacore SPR, chimera immobilised
Protocol: as §1, §2

[7] = target: T5, VEGF (UniProt P15692-4 27-191); experiment: Biacore SPR, chimera immobilised
Protocol: as §1, §2

[8] = target: T2, IGF-1; experiment: Biacore SPR, chimera immobilised
Protocol: as §1, §2

[9] = target: TGF-α (UniProt P01135 40-89); experiment: Biacore SPR, chimera immobilised
Protocol: as §1, §2

[10] = target: mIGF-1 (UniProt P05017 49-118); experiment: Biacore SPR, chimera immobilised
Protocol: as §1, §2

[11] = target: T6, bFGF (UniProt P09038 143-288, limits assumed); experiment: Biacore SPR, growth factor immobilised; growth factor immobilised
T6 construct: also called basic fibroblast growth factor

[12] = target: T2, IGF-1; experiment: Biacore SPR; experiment 4-79
Protocol: as §1

[13] = target: T2, IGF-1; experiment: biotinylated IGF-1 ELISA on Fc-captured chimera, after overnight in PBS at 37 C, against the 4 C PBS control; experiment 4-81
Protocol: as §3, §4

[14] = target: T2, IGF-1; experiment: biotinylated IGF-1 ELISA on Fc-captured chimera, after overnight in MCF-7 conditioned medium at 37 C, against the 4 C PBS control; experiment 4-81
Protocol: as §3, §4

[15] = target: T6, bFGF; experiment: Biacore SPR, immobilised bFGF; experiment 4-79
Protocol: as §1

[16] = target: T2, IGF-1; experiment: biotinylated IGF-1 ELISA on Fc-captured chimera, 4 C PBS control (the reference); experiment 3-192
Protocol: as §3, §4

[17] = target: T2, IGF-1; experiment: biotinylated IGF-1 ELISA on Fc-captured chimera, after overnight in MCF-7 conditioned medium at 37 C, against the 4 C PBS control; experiment 3-192
Protocol: as §3, §4

[18] = target: T2, IGF-1; experiment: biotinylated IGF-1 ELISA on Fc-captured chimera, after overnight in PBS at 37 C, against the 4 C PBS control; experiment 3-192
Protocol: as §3, §4

[19] = target: T2, IGF-1; experiment: SPR, without VEGF; absence of VEGF
Protocol: as §1
(§5) To further examine the nature of the VEGF and IGF binding to chimera A, simultaneous binding was examined using the surface plasmon resonance.

[20] = target: T2, IGF-1; experiment: SPR, in the presence of 3 nM VEGF; presence of 3 nM VEGF
Protocol: as §1, §5

[21] = target: T6, bFGF; experiment: Biacore SPR, growth factor immobilised
Protocol: as §1, §2

[22] = target: T7, PIGF (UniProt P49763-2 21-149); experiment: Biacore SPR, chimera immobilised
T7 construct: also called placental growth factor
T7 sequence (looked up): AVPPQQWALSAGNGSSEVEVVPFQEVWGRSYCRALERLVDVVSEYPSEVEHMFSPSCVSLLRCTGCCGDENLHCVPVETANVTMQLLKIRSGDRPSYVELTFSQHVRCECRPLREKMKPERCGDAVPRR
Protocol: as §1, §2

[23] = target: T5, VEGF; experiment: Biacore SPR, chimera immobilised; footnote: the kd is very low and difficult to measure
Protocol: as §1, §2

[24] = target: T3, nrgbx; experiment: cell-based or functional assay

T2 sequence (P05019 49-118 limits assumed): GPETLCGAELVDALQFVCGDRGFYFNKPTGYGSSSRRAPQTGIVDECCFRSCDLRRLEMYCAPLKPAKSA
T6 sequence (P09038 143-288 limits assumed): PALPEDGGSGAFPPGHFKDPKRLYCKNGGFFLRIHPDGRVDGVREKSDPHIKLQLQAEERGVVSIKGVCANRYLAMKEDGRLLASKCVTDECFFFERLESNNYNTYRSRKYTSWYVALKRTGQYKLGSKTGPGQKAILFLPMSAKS
Chain of IGF-2 (P01344 25-91 limits assumed): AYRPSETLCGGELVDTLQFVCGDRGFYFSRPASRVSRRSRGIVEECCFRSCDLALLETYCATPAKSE
Chain of TGF-α (P01135 40-89 limits assumed): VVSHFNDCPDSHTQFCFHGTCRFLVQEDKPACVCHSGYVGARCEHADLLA
T5 sequence (P15692 other isoform, or with tags, fused parts or gaps limits assumed): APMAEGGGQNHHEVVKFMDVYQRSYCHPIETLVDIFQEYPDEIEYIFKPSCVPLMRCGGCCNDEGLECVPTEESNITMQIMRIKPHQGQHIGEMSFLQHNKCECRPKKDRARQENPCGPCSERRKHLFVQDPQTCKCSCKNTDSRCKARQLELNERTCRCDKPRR
Chain of mIGF-1 (P05017 49-118 limits assumed): as the sequence (P05019 49-118 limits assumed) above, with D20P, S35I, A67T, S69A counted along it
T1 sequence (P14210 32-728 limits assumed): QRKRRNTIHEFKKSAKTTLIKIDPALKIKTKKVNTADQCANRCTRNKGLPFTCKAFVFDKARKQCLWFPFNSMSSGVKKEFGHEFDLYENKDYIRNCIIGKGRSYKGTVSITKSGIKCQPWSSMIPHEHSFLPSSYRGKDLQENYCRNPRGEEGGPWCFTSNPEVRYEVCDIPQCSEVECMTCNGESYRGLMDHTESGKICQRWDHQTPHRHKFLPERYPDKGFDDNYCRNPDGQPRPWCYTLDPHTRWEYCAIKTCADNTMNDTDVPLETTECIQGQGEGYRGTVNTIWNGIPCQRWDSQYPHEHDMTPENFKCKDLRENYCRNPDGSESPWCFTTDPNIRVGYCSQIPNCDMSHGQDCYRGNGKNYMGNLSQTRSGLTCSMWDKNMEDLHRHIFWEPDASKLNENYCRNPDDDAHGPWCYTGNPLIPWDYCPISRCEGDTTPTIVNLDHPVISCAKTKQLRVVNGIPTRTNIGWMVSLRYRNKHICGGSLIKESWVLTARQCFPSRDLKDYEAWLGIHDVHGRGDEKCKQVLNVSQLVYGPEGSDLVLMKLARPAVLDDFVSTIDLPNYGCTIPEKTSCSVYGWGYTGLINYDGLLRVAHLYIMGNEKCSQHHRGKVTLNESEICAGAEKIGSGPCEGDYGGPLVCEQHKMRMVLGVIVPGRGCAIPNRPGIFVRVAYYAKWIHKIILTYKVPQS
Chain of mIGF-2 (P09535 25-91 limits assumed): as the sequence (P01344 25-91 limits assumed) above, with R3G, S5G, G22S, A32S, V35A, S36N counted along it

B1: IGFBP3-Fc-1 (Fc fusion)
chain: GASSAGLGPVVRCEPCDARALAQCAPPPAVCAELVREPGCGCCLTCALSEGQPCGIYTERCGSGLRCQPSPDEARPLQALLDGRGLCVNASAVSKGHAKDSQRYKVDYESQSTDTQNFSSESKRETEYGPCRREMEDTLNHLKFLNVLSPRGVHIPNCDKKGFYKKKQCRPSKGRKRGFCWCVDKYGQPLPGYTTKGKEDVHCYSMQSKVECPPCPAPPVAGPSVFLFPPKPKDQLMISRTPEVTCVVVDVSHEDPEVKFNWYVDGVEVHNAKTKPREEQYNSTYRVVSVLTVLHQDWLNGKEYKCKVSNKGLPSSIEKTISKAKGQPREPQVYTLPPSREEMTKNQVSLTCLVKGFYPSDIAVEWESNGQPENNYKTTPPVLDSDGSFFLYSKLTVDKSRWQQGNVFSCSVMHEGLHNHYTQKSLSLSPGK
notes: IGFBP3 with IGFBP3 linker deletion 1 (55 amino acids deleted from the linker region), fused to Fc; dimeric; also called h3t33fc; his3t33fc
In the case of B1, the Kd [1] is reported as 0.608 nM, the “IGF-1 binding remaining over controls” value [2] is reported as 100% and the Kd [3] is reported as 5.98 nM. For the same binder, the Kd [4] was 3 nM, the Kd [5] was 0.174 nM and the Kd [6] was 0.14 nM. The binding result [7] was “no binding”, the Kd [8] was 0.161 nM and the binding result [9] was “no binding”. The Kd [10] was 0.21 nM, the Kd [11] was 13 nM and the Kd [12] was 0.575 nM. The “IGF-1 binding remaining over controls” value [13] was 101%, the “IGF-1 binding remaining over controls” value [14] was 51% and the Kd [15] was 13.3 nM. For the same binder, the “IGF-1 binding remaining over controls” value [16] was 100%, the “IGF-1 binding remaining over controls” value [17] was 54% and the “IGF-1 binding remaining over controls” value [18] was 99%.

B2: IGFBP3-Fc-VEGF-1 (Fc fusion)
chain: GASSAGLGPVVRCEPCDARALAQCAPPPAVCAELVREPGCGCCLTCALSEGQPCGIYTERCGSGLRCQPSPDEARPLQALLDGRGLCVNASAVSKGHAKDSQRYKVDYESQSTDTQNFSSESKRETEYGPCRREMEDTLNHLKFLNVLSPRGVHIPNCDKKGFYKKKQCRPSKGRKRGFCWCVDKYGQPLPGYTTKGKEDVHCYSMQSKAPPAPGNASESEEDRSAGIYIFISDTGRPFVEMYSEIPEIIHMTEGRELVIPCRVTSPNITVTLKKFPLDTLIPDGKRIIWDSRKGFIISNATYKEIGLLTCEATVNGHLYKTNYLTHRQGYRIYDVVLSPSHGIELSVGEKLVLNCTARTELNVGIDFNWEYPSSKHQHKKLVNRDLKTQSGSEMKKFLSTLTIDGVTRSDQGLYTCAASSGLMTKKNSTFVRVHEKVECPPCPAPPVAGPSVFLFPPKPKDQLMISRTPEVTCVVVDVSHEDPEVKFNWYVDGVEVHNAKTKPREEQYNSTYRVVSVLTVLHQDWLNGKEYKCKVSNKGLPSSIEKTISKAKGQPREPQVYTLPPSREEMTKNQVSLTCLVKGFYPSDIAVEWESNGQPENNYKTTPPVLDSDGSFFLYSKLTVDKSRWQQGNVFSCSVMHEGLHNHYTQKSLSLSPGK
notes: IGFBP3 with linker deletion 1 - gly 3 linker - v1v2 (VEGFR1 domain 2, VEGFR2 domain 3) - Fc; dimeric; also called chimera A; chimeraA
In the case of B2, the Kd [19] is reported as 0.4 nM, the Kd [20] is reported as 0.2 nM and the Kd [21] is reported as 1.92 nM. The Kd [1] was 0.0218 nM, the Kd [3] was 4.88 nM and the Kd [4] was 0.5 nM. For the same binder, the Kd [5] was 0.0389 nM, the Kd [6] was 0.0513 nM and the Kd [22] was 0.999 nM. It also gave a Kd [8] of 0.0245 nM, a Kd [9] of 9250 nM and a Kd [10] of 0.137 nM. The Kd [23] was 0.0038 nM, the “IC50 in inhibiting neuregulin-induced proliferation” value [24] was 47 nM and the “IGF-1 binding remaining over controls” value [16] was 100%. The “IGF-1 binding remaining over controls” value [17] was 77% and the “IGF-1 binding remaining over controls” value [18] was 94%.
